Results: the RNAGym collection of RNA variant scans (doi:10.7554/elife.80360)

B1: HDV Ribozyme (parent)
chain: GGCCGGCAUGGUCCCAGCCUCCUCGCUGGCGCCGGCUGGGCAACAUUCCGAGGGGACCGUCCCCUCGGUAAUGGCGAAUGGGACCCA

Variants of: B1
Assay: self-cleavage, relative activity (ratio to wild type); higher = more cleavage; co-transcriptional
Variant U9A G17A has a self-cleavage of 0.906. With U27C C61A the self-cleavage was 0.898. Variant C3A C18U has a self-cleavage of 0.00889. With A42C C64G the self-cleavage was 0.277. Variant C41A G73C has a self-cleavage of 0.554. Work on G2A G73U yielded a self-cleavage of 0.0443. Variant C19U C86U has a self-cleavage of 0.122. Variant G25C G50U has a self-cleavage of 0.0811. With U60C G73C the self-cleavage was 0.465. Variant U46A A78C has a self-cleavage of 0.131. G25U A78C showed a self-cleavage of 0.0665. With A56G G73U the self-cleavage was 0.249. C41A A77G showed a self-cleavage of 0.628. Work on G2A U60C yielded a self-cleavage of 0.354. Variant C57A G67A has a self-cleavage of 0.926. Work on C63A A71C yielded a self-cleavage of 0.525. Work on G6U A83G yielded a self-cleavage of 0.17. C15U C84G showed a self-cleavage of 0.635. Work on G59C C75A yielded a self-cleavage of 0.219. G53C C57A showed a self-cleavage of 0.95. For G38C G82U, the self-cleavage was 0.162. With C30A G40A the self-cleavage was 0.462. In the case of G5U A45G, the self-cleavage is reported as 0.692. Variant G53A U65G has a self-cleavage of 0.708. In the case of C13U C36A, the self-cleavage is reported as 0.132. C4A C44U gave a self-cleavage of 0.0739. With A8G A51G the self-cleavage was 1.16. For C36G G53C, the self-cleavage was 0.158. Work on C49G U65C yielded a self-cleavage of 0.675. C58A A70C showed a self-cleavage of 1.04. C57G C84G gave a self-cleavage of 0.831. For A43C C44G, the self-cleavage was 0.458. Work on U12C U69A yielded a self-cleavage of 0.166. For C3U U23A, the self-cleavage was 0.9. Work on G31A C61G yielded a self-cleavage of 0.401. With G39C C49A the self-cleavage was 0.237. In the case of C57A U69A, the self-cleavage is reported as 0.969. Work on U23C U37A yielded a self-cleavage of 0.0536. Variant C22G G25A has a self-cleavage of 0.0396. For G5C G68U, the self-cleavage was 0.0615. G39C U65C gave a self-cleavage of 0.374. C3A G74U gave a self-cleavage of 0.156. C3A G74A gave a self-cleavage of 0.0326. Variant C49A G54U has a self-cleavage of 0.734. In the case of U12C C13A, the self-cleavage is reported as 0.0665. With U12C C13G the self-cleavage was 0. In the case of G40A U65G, the self-cleavage is reported as 0.601. For C3A C32G, the self-cleavage was 0.0266. G59C U60C showed a self-cleavage of 0.937. Work on C22G G29A yielded a self-cleavage of 0.0886. Work on C3A G25U yielded a self-cleavage of 0.0631. Work on C21U G55A yielded a self-cleavage of 0.231. U37A C84G gave a self-cleavage of 0.151. U27A A71U gave a self-cleavage of 0.906. Work on C18A G53C yielded a self-cleavage of 0.214. For C64A C86G, the self-cleavage was 0.923. C58U C66G gave a self-cleavage of 0.931. Variant C58A A87G has a self-cleavage of 1.11. C63U C84G showed a self-cleavage of 0.63. Work on C18G U69C yielded a self-cleavage of 0.151. With U12C C61A the self-cleavage was 0.511. In the case of C26A U72G, the self-cleavage is reported as 0.657. With U69A G82C the self-cleavage was 0.554. For U9G A71G, the self-cleavage was 0.831. Work on C58U C75G yielded a self-cleavage of 0.116. A43U G55U gave a self-cleavage of 0.619. Variant G2A C84U has a self-cleavage of 0.119. Variant G6C G55A has a self-cleavage of 0.16. G6U G31C gave a self-cleavage of 0.122. In the case of G2C G54C, the self-cleavage is reported as 0.0208. For C44G G50A, the self-cleavage was 0.657. A42C U72C showed a self-cleavage of 0.107. With C14A C30U the self-cleavage was 0.143. Variant G28A A87G has a self-cleavage of 0.0492. Variant C21A A87U has a self-cleavage of 0.0915. For C26G C61A, the self-cleavage was 1.12. In the case of G34A A56U, the self-cleavage is reported as 0.256. Work on G53U G67C yielded a self-cleavage of 0.534. Variant G35A U69A has a self-cleavage of 0.571. Work on A71G U79C yielded a self-cleavage of 0.339. For U27C G52C, the self-cleavage was 0.764. G67A G74A showed a self-cleavage of 0.403. G39C A70G gave a self-cleavage of 0.151. A45C U79C showed a self-cleavage of 0.0791. C15G G50U showed a self-cleavage of 0.598. Work on C3G A51G yielded a self-cleavage of 0.746. For G25A U79C, the self-cleavage was 0.0583. In the case of C22G G50C, the self-cleavage is reported as 0. With G54A A77C the self-cleavage was 0.383. With G52A U69A the self-cleavage was 1.05. In the case of A8C G25C, the self-cleavage is reported as 0. In the case of C41A G55A, the self-cleavage is reported as 0.937. Work on A56U A70G yielded a self-cleavage of 1.07. A56U A70C gave a self-cleavage of 0.811. Work on C3U C75G yielded a self-cleavage of 0.104. A45G U47G gave a self-cleavage of 0.767. Work on C4A C64G yielded a self-cleavage of 0.386. With C18G G52U the self-cleavage was 0.203. For C4G G38C, the self-cleavage was 0. Work on U20C G80U yielded a self-cleavage of 0.0625. For C19U C22A, the self-cleavage was 0.0886. G28U A77G showed a self-cleavage of 0.111. Variant C18U A83C has a self-cleavage of 0.227. Variant G2U C64A has a self-cleavage of 0.0339. C21G U46C showed a self-cleavage of 0.104. In the case of G6A U27G, the self-cleavage is reported as 0.643. U37C U47G gave a self-cleavage of 0.8. Variant C26A A70C has a self-cleavage of 1.01. In the case of C4G G17U, the self-cleavage is reported as 0. With G25U C66A the self-cleavage was 0.172. G50U A51C gave a self-cleavage of 0.889. C32A U65G gave a self-cleavage of 0.122. U23G C44U showed a self-cleavage of 0.325. With U47C U79C the self-cleavage was 0.297. For C21G C57G, the self-cleavage was 0.0437. In the case of C75G A77U, the self-cleavage is reported as 0.213. Work on A78G C86G yielded a self-cleavage of 0.806. With G73A G81C the self-cleavage was 0.425. Variant U27C G68U has a self-cleavage of 0.642. In the case of G1A G52C, the self-cleavage is reported as 0.237. Variant G6U A77C has a self-cleavage of 0.332. C57U G59U showed a self-cleavage of 1.2. In the case of C49G G54U, the self-cleavage is reported as 0.519. With G2U U79A the self-cleavage was 0. With C18U C33G the self-cleavage was 0.252. With G10C C30U the self-cleavage was 0.208. Work on A43G C86A yielded a self-cleavage of 0.712. With C7G G74C the self-cleavage was 0.0475. For A8C G11U, the self-cleavage was 0.17. G1U U79G gave a self-cleavage of 0.539. Variant C33G A51C has a self-cleavage of 0.246. In the case of G1A G6A, the self-cleavage is reported as 0.437. With C4U C58A the self-cleavage was 0.852. G73A A78G gave a self-cleavage of 0.203. For G6U U47G, the self-cleavage was 0.554. G29U A42G showed a self-cleavage of 0.148. Variant G29C C64U has a self-cleavage of 0.0594. C4A G67U showed a self-cleavage of 0.354. U46A A83C gave a self-cleavage of 0.323. U46A A71U gave a self-cleavage of 0.95. For G1U U65C, the self-cleavage was 0.399. In the case of C84U A87G, the self-cleavage is reported as 0.437. C18U C62U showed a self-cleavage of 0.831. With C26U G76C the self-cleavage was 0.87. Work on G55U G68A yielded a self-cleavage of 1.03. With A70G U79C the self-cleavage was 0.365. G2A G52A showed a self-cleavage of 0.143. Work on A43U A83U yielded a self-cleavage of 0.125. C24A G74C showed a self-cleavage of 0.0326. In the case of G29U C57U, the self-cleavage is reported as 0.0911. In the case of G55A C62U, the self-cleavage is reported as 1.03. Variant U20C U37C has a self-cleavage of 0.252. G1A C49G showed a self-cleavage of 0.166. G34A U37A gave a self-cleavage of 0.0554. In the case of U9C C61G, the self-cleavage is reported as 0.755. Variant A78C has a self-cleavage of 0.164. For C49G A71U, the self-cleavage was 1.04. C33A C58G showed a self-cleavage of 0.332. G40U C85G gave a self-cleavage of 0.612. Variant C15U C36U has a self-cleavage of 0.886. With C30G C48A the self-cleavage was 0.0369. In the case of G1U C30A, the self-cleavage is reported as 0.426. In the case of G81U G82C, the self-cleavage is reported as 0.297. In the case of G38C A51U, the self-cleavage is reported as 0.181. With U27G G68C the self-cleavage was 0.87. Work on G40A G54A yielded a self-cleavage of 1.04. C7A U9A showed a self-cleavage of 0.431.
